To fix the notation:
B1: SEQ ID NO 19 (receptor)
chain: MAGHLPKPTLWAEPGSVITMDQPVTLRCQGGQETQEYRLYREKKTAPWITRIPQELVKKGQFPIPSITWEHAGRYRCYYGSDTSQWSASSDPLELVVTGVYIKPTLSAQPSPVVNSGGNVTLQCDSQVAFDGFILCKEGEDEHPQCLNSQPHARGSSRAIFSVGPVSPSRRWWYRCYAYMSWSPYEWSLPSDLLELDVDG
notes: mutated soluble two domain ILT-2; also called clone 83; Clone c83
B2: SEQ ID NO 16 (receptor)
chain: B1 chain with G3Q, A129T, M180D, W182N
notes: mutated soluble two domain ILT-2
B3: SEQ ID NO 13 (receptor)
chain: B1 chain with M180P, S181A, S183T
notes: as for B2
B4: SEQ ID NO 15 (receptor)
chain: B1 chain with G3Q, A129S, M180D, W182N
notes: as for B2
B5: SEQ ID NO 12 (receptor)
chain: B1 chain with M180V, W182Y, S183W
notes: as for B2
B6: SEQ ID NO 10 (receptor)
chain: B1 chain with M180T, S181D, W182Y
notes: as for B2
B7: SEQ ID NO 9 (receptor)
chain: B1 chain with S181N, S183A
notes: as for B2
B8: SEQ ID NO 14 (receptor)
chain: B1 chain with G3Q, A129D, M180D, W182N
notes: as for B2
B9: SEQ ID NO 8 (receptor)
chain: B1 chain with M180V, S181A, S183A
notes: as for B2
B10: SEQ ID NO 21 (receptor)
chain: B1 chain with M180P, S181W, W182F, S183T
notes: as for B2
B11: SEQ ID NO 20 (receptor)
chain: B1 chain with M180P, S181D, W182F, S183T
notes: as for B2
B12: SEQ ID NO 17 (receptor)
chain: B1 chain with G3Q, F130Y, M180D, W182N
notes: as for B2
B13: SEQ ID NO 18 (receptor)
chain: B1 chain with S183A
notes: as for B2
B14: SEQ ID NO 22 (receptor)
chain: B1 chain with M180G, S181R, S183L
notes: as for B2
B15: SEQ ID NO 11 (receptor)
chain: B1 chain with M180V, S181D, S183F
notes: as for B2
B16: SEQ ID NO 7 (receptor)
chain: B1 chain with M180P, S181I, S183T
notes: as for B2
B17: SEQ ID NO 79 (receptor)
chain: MGHLPKPTLWAEPGSVITMDQPVTLRCQGGQETQEYRLYREKKTAPWITRIPQELVKKGQFPIPSITWEHAGRYRCYYGTQTAGRSESSDPLELVVTGVYIKPTLSAQPSPVVNSGGNVTLQCDSQVAFDGFILCKEGEDEHPQCLNSQPHARGSSRAIFSVGPVSPGRRWWYRCYAYDSNSPYEWSLPSDLLELLVL
notes: as for B2
B18: SEQ ID NO 104 (receptor)
chain: B17 chain with M19L, D20G, T80S, Q81D, V99I, I101L, K102A, G168S
notes: as for B2
B19: SEQ ID NO 94 (receptor)
chain: B17 chain with M19Q, D20G, Q21S, T80G, T82E, A83G, G84A, G168S
notes: as for B2
B20: SEQ ID NO 106 (receptor)
chain: MGHLPKPTLWAEPGSVITLGQPVTLRCQGGQETQEYRLYREKKTAPWITRIPQELVKKGQFPIPSITWEHAGRYRCYYGSDTSQWSASSDPLELVVTGIYLAPTLSAQPSPVVNSGGNVTLQCDSQVAFDGFILCKEGEDEHPQCLNSQPHARGSSRAIFSVGPVSPSRRWWYRCYAYDSNSPYEWSLPSDLLELLVL
notes: as for B2
B21: SEQ ID NO 80 (receptor)
chain: B17 chain with Y77V, Y78I, G79Q, T80R, Q81G, G168S
notes: as for B2
B22: SEQ ID NO 83 (receptor)
chain: B20 chain with L19Q, Q21S, S83A, Q84G, W85R, A87E
notes: as for B2
B23: SEQ ID NO 91 (receptor)
chain: B17 chain with M19Q, D20G, Q21S, I66V, T80S, Q81D, G168S
notes: as for B2
B24: SEQ ID NO 100 (receptor)
chain: B20 chain with L19Q, Q21S, S83A, Q84G, W85R, A87E, A102Q, S168G
notes: as for B2
B25: SEQ ID NO 85 (receptor)
chain: B20 chain with L19Q, Q21S, S83A, Q84G, W85R, A87E, L101Q
notes: as for B2
B26: SEQ ID NO 97 (receptor)
chain: B20 chain with L19Q, Q21S, S83A, Q84G, W85R, A87E, L101K, S168G
notes: as for B2
B27: SEQ ID NO 81 (receptor)
chain: B17 chain with Y77M, Y78Q, G79Y, Q81L, G168S
notes: as for B2
B28: SEQ ID NO 89 (receptor)
chain: B17 chain with M19L, D20G, T80S, Q81D
notes: as for B2
B29: SEQ ID NO 103 (receptor)
chain: B20 chain with L19M, G20D, S83A, Q84G, W85R, A87E
notes: as for B2
B30: SEQ ID NO 92 (receptor)
chain: B17 chain with M19Q, D20G, Q21S, Y77V, Y78G, G79W, T80A, Q81V, G168S
notes: as for B2
B31: SEQ ID NO 98 (receptor)
chain: B17 chain with M19Q, D20G, Q21S, T80S, Q81D, V99I, I101Q, K102R
notes: as for B2
B32: SEQ ID NO 99 (receptor)
chain: B20 chain with L19Q, Q21S, S83A, Q84G, W85R, A87E, L101Q, S168G
notes: as for B2
B33: SEQ ID NO 101 (receptor)
chain: B17 chain with M19Q, D20G, Q21S, T80S, Q81D, V99I, I101K, K102Q
notes: as for B2
B34: SEQ ID NO 96 (receptor)
chain: B17 chain with M19Q, D20G, Q21S, W47Q, T80S, Q81D, I101V, K102A
notes: as for B2
B35: SEQ ID NO 87 (receptor)
chain: B17 chain with M19Q, D20G, Q21R, T80S, Q81D, G168S
notes: as for B2
B36: SEQ ID NO 95 (receptor)
chain: B17 chain with M19Q, D20G, Q21S, Y77Q, Y78G, G79V, T80S, G168S
notes: as for B2
B37: SEQ ID NO 105 (receptor)
chain: B20 chain with L19M, G20D
notes: as for B2
B38: SEQ ID NO 86 (receptor)
chain: B17 chain with M19Q, D20G, Q21A, T80S, Q81D
notes: as for B2
B39: SEQ ID NO 102 (receptor)
chain: B20 chain with L19Q, Q21S, S83A, Q84G, W85R, A87E, L101Q, A102K
notes: as for B2
B40: SEQ ID NO 84 (receptor)
chain: B20 chain with L19Q, Q21S, S83A, Q84G, W85R, A87E, L101K
notes: as for B2
B41: SEQ ID NO 88 (receptor)
chain: B17 chain with M19V, D20G, T80S, Q81D
notes: as for B2
B42: SEQ ID NO 90 (receptor)
chain: B17 chain with M19Q, D20G, Q21S, T80S, Q81D
notes: as for B2
B43: SEQ ID NO 82 (receptor)
chain: B20 chain with L19Q, Q21S, S83A, Q84G, W85R, A87E, L101R, A102Q
notes: as for B2

Changes are numbered by the printed parent chain. Where only a bound is given, the exact number is not on record here.

The assay deals with T1, HLA-A*0201 loaded with the Carcinoembryonic antigen (CEA)-derived … peptide (biotin on the C-terminal biotinylation tag).
T1 construct: Soluble, biotinylated, immobilised on a streptavidin chip
The experiment in a line: Biacore SPR. As for the experimental part:
SPR measures changes in refractive index expressed in response units (RU) near a sensor surface within a small flow cell, a principle that can be used to detect receptor ligand interactions and to analyse their affinity and kinetic parameters. The probe flow cells were prepared by immobilising the pMHC complexes in flow cells via biotin-tag binding. The assay was then performed by passing soluble ILT-like molecule over the surfaces of the different flow cells at a constant flow rate, measuring the SPR response in doing so.
B1 gave a Kd of no more than 1 µM and a koff of no more than 2 s⁻¹.
For B2, in that order: no more than 1 µM and no more than 2 s⁻¹.
The corresponding values for B3 are no more than 1 µM and no more than 2 s⁻¹.
For B4, in that order: no more than 1 µM and no more than 2 s⁻¹.
Take B5: the equilibrium dissociation constant (Kd) was no more than 1 µM and the koff was no more than 2 s⁻¹.
For B6, in that order: no more than 1 µM and no more than 2 s⁻¹.
The corresponding values for B7 are no more than 1 µM and no more than 2 s⁻¹.
For B8, in that order: no more than 1 µM and no more than 2 s⁻¹.
Turning to B9, the Kd was no more than 1 µM and the koff is no more than 2 s⁻¹.
For B10, in that order: no more than 1 µM and no more than 2 s⁻¹.
For the molecule B11, the Kd is no more than 1 µM and the koff was no more than 2 s⁻¹.
Consider B12, for which the Kd was no more than 1 µM and the koff is no more than 2 s⁻¹.
The corresponding values for B13 are no more than 1 µM and no more than 2 s⁻¹.
Take B14: the Kd is no more than 1 µM and the koff was no more than 2 s⁻¹.
The corresponding values for B15 are no more than 1 µM and no more than 2 s⁻¹.
The corresponding values for B16 are no more than 1 µM and no more than 2 s⁻¹.
The corresponding values for B17 are no more than 1 µM and no more than 2 s⁻¹.
For the molecule B18, the Kd is no more than 1 µM and the koff was no more than 2 s⁻¹.
On to B19, for which the Kd was no more than 1 µM and the koff is no more than 2 s⁻¹.
The corresponding values for B20 are no more than 1 µM and no more than 2 s⁻¹.
As to B21, the Kd is no more than 1 µM and the koff was no more than 2 s⁻¹.
For B22, in that order: no more than 1 µM and no more than 2 s⁻¹.
For B23, in that order: no more than 1 µM and no more than 2 s⁻¹.
For B24, in that order: no more than 1 µM and no more than 2 s⁻¹.
Consider B25, for which the Kd was no more than 1 µM and the koff was no more than 2 s⁻¹.
The molecule B26 returned a Kd of no more than 1 µM and a koff of no more than 2 s⁻¹.
The corresponding values for B27 are no more than 1 µM and no more than 2 s⁻¹.
B28: the Kd was no more than 1 µM and the koff was no more than 2 s⁻¹.
The corresponding values for B29 are no more than 1 µM and no more than 2 s⁻¹.
For B30, in that order: no more than 1 µM and no more than 2 s⁻¹.
On to B31, for which the Kd was no more than 1 µM and the koff was no more than 2 s⁻¹.
For B32, in that order: no more than 1 µM and no more than 2 s⁻¹.
For B33, in that order: no more than 1 µM and no more than 2 s⁻¹.
The corresponding values for B34 are no more than 1 µM and no more than 2 s⁻¹.
Regarding B35, the Kd is no more than 1 µM and the koff is no more than 2 s⁻¹.
For B36, in that order: no more than 1 µM and no more than 2 s⁻¹.
For B37, in that order: no more than 1 µM and no more than 2 s⁻¹.
The corresponding values for B38 are no more than 1 µM and no more than 2 s⁻¹.
On to B39, for which the Kd was no more than 1 µM and the koff was no more than 2 s⁻¹.
For B40, in that order: no more than 1 µM and no more than 2 s⁻¹.
For B41, in that order: no more than 1 µM and no more than 2 s⁻¹.
For B42, in that order: no more than 1 µM and no more than 2 s⁻¹.
For B43, the Kd is no more than 1 µM and the koff is no more than 2 s⁻¹.

These data come from US20100135997A1 (MEDGENE, published 2010).
